Experimental findings from paper PMC3227541 are described below.

Test [1] concerns the target fluorescein-labelled single cysteine mutant of arrestin-3 (arrestin-3-L101C on cysteine-less background) (bovine) (UniProt P32120). The test can be described thus: FRET or BRET.
Test [2] addresses fluorescein-labelled single cysteine mutant of arrestin-2 (arrestin-2-S234C on cysteine-less background) (bovine) (UniProt P17870). The test can be described thus: FRET or BRET.
UniProt P17870, sequence (P17870 whole entry S234C, stated change not applied): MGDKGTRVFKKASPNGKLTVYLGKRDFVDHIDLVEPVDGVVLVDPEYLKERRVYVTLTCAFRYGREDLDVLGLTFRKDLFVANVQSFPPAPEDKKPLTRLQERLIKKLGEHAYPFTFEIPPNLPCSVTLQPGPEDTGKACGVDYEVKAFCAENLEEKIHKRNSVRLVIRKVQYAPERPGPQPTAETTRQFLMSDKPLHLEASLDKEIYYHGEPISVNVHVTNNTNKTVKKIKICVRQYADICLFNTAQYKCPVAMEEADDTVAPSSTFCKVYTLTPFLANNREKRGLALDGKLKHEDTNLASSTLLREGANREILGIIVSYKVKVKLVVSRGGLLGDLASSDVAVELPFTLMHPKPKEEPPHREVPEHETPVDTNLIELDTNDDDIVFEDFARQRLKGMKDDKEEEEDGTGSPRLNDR

UniProt P32120, sequence (P32120 whole entry L101C, stated change not applied): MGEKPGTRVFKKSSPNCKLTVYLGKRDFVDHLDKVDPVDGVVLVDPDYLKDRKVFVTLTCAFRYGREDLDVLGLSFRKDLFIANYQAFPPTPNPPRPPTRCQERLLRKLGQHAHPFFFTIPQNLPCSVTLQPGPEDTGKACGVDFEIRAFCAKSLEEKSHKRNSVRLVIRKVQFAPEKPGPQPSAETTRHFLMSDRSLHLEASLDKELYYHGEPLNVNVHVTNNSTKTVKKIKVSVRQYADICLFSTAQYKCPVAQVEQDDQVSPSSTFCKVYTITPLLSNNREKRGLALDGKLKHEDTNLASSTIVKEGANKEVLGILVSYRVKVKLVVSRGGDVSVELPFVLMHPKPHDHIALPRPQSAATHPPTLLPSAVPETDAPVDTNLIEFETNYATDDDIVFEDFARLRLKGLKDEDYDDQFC

As usually defined, the Kd is a measure of binding affinity in units of concentration. A lower Kd goes with higher affinity. Regarding “Alexa-568-labeled JNK3α2-His (from UniProt P53779 1-464) (enzyme)”, the Kd in test [1] is 4.4 µM; in test [2] it was 6.1 µM.
